T1: Mouse SIRPA D1 Fc (mouse, UniProt P97797 32-150, limits assumed)
T1 sequence: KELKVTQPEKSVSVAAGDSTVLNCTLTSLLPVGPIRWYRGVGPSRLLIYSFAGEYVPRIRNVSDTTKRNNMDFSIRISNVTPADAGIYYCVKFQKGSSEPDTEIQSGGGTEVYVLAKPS

T2: mouse SIRPA overexpressed on CHO cells (mouse, UniProt P97797 32-513)
T2 construct: also called CHO-muSIRPA
T2 sequence: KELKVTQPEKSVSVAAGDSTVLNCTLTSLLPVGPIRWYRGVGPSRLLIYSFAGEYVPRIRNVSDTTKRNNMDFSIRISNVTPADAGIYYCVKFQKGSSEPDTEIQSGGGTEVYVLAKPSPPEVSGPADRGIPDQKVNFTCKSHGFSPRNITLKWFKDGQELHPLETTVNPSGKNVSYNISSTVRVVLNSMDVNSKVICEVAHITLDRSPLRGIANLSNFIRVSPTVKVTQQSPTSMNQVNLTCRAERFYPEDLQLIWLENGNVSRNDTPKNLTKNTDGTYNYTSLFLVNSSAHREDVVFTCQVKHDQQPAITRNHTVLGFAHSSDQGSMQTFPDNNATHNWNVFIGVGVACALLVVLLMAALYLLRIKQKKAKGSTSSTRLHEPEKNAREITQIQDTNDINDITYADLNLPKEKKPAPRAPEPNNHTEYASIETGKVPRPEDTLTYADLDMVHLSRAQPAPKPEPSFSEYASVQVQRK


Assays:
Mouse SIRPA D1 Fc = molecular target: T1, Mouse SIRPA D1 Fc; assay: ForteBio IgG avid;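 further: antibody IgG captured on AHQ biosensors, then 100 nM Fc-fused SIRP antigen applied for 3 min, followed by 3 min buffer dissociation, kinetics fitted to a 1:1 model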
Protocol: (§1) Briefly, ForteBio affinity measurements were performed by loading IgGs on-line onto AHQ sensors. Sensors were equilibrated off-line in assay buffer for 30 min and then monitored on-line for 60 seconds for baseline establishment. For avid binding measurement, sensors with loaded IgGs were exposed to 100 nM antigen (human SIRPA or SIRPβ1 Fc fusion) for 3 min, afterwards they were transferred to assay buffer for 3 min for off-rate measurement. Additional avid binding was determined by loading biotinylated SIRPA monomer on SA sensors and exposure to 100 nM IgG in solution. Monovalent binding measurements were obtained by loading human SIRPA or SIRPβ1 Fc fusion antigens to AHQ sensor and followed by exposure to 100 nM anti-SIRPA antibody Fab. Additional monovalent measurements were made by loading biotinylated human SIRPA or SIRPβ1 monomer to SA sensor followed by exposure to 100 nM Fab in solution. Kinetics data were fit using a 1:1 binding model in the data analysis software provided by ForteBio.

Human SIRPb D1 Fc = Human SIRPb D1 Fc (human, UniProt O00241 30-148, limits assumed); assay: ForteBio IgG avid;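 further: antibody IgG captured on AHQ biosensors, then 100 nM Fc-fused SIRP antigen applied for 3 min, followed by 3 min buffer dissociation, kinetics fitted to a 1:1 model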
Protocol: as §1

[1] = molecular target: T3, human SIRPβ1 Fc fusion antigen (human, UniProt O00241 30-371); assay: ForteBio IgG avid;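 further: ForteBio sensor-based avid binding of anti-SIRPA antibodies in IgG format, with the binding partner in solution at 100 nM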
T3 construct: not shown: human IgG1 Fc

[2] = molecular target: T2, mouse SIRPA overexpressed on CHO cells; assay: flow, CHO-muSIRPA;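 on relative MFI: antibody binding measured by flow cytometry: cells stained with 1 ug/ml test antibody for 1 h on ice, detected with PE-labelled secondary antibody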
[3] = molecular target: T2, mouse SIRPA overexpressed on CHO cells; assay: flow, CHO-muSIRPA; remark: listed apart in the source;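 on relative MFI: antibody binding measured by flow cytometry: cells stained with 1 ug/ml test antibody for 1 h on ice, detected with PE-labelled secondary antibody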
[4] = molecular target: T4, human SIRPA overexpressed on CHO cells (human, UniProt P78324 31-504); assay: flow, CHO-huSIRPA;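 further: Anti-SIRPA antibodies applied at 1 µg/mL for 1 h on ice, binding read by flow cytometry using a PE-labelled secondary antibody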
T4 construct: also called CHO-huSIRPA

[5] = molecular target: T5, human SIRPA Fc fusion antigen (human, UniProt P78324 31-373); assay: ForteBio IgG avid;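 further: ForteBio sensor-based avid binding of anti-SIRPA antibodies in IgG format, with the binding partner in solution at 100 nM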
T5 construct: heterologous signal peptide; not shown: human IgG1 Fc

T3 sequence (O00241 30-371 limits assumed): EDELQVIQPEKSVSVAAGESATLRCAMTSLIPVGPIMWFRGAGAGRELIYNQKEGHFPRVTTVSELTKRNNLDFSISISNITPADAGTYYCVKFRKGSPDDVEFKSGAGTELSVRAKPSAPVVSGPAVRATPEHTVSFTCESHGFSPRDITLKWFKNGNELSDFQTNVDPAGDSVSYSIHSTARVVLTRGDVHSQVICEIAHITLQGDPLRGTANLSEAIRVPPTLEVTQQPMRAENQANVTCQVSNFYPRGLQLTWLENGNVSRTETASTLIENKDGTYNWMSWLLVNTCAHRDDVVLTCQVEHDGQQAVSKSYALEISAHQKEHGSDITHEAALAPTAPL
Sequence of Human SIRPb D1 Fc (O00241 30-148 limits assumed): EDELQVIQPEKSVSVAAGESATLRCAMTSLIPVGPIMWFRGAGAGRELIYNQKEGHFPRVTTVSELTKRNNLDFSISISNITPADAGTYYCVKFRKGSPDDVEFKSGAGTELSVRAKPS

Binder | binding result (Mouse SIRPA D1 Fc) | Kd (Human SIRPb D1 Fc) [nM] | Kd [1] [nM] | relative MFI [2] [fold over background] | binding result [3] | relative MFI [4] [fold over background] | Kd [5] [nM] | binding result (Human SIRPb D1 Fc)
SA-13 (antibody, V domains shown, IgG; also called SA-13 (parental)) VH: not shown VL: DIQMTQSPSSLSASVGDRVTITCRASQSISSYLNWYQQKPGKAPKLLIYAASSLQSGVPSRFSGSGSGTDFTLTISSLQPEDFATYYCQQGYIYPPTFGGGTKVEIK | no binding (tested: 100 nM) | 19.6 | 12.3 | 0.571 | no binding (tested: 1 ug/ml) | 59.9 | – | –
SA-13-69 (antibody, V domains shown, IgG) VH: EVQLLESGGGLVQPGGSLRLSCAASGFTFTEYAMSWVRQAPGKGLEWVSAISGSGGSTYYADSVKARFTISRDNSKNTLYLQMNSLRAEDTAVYYCARDGTQWGPHFYWGQGTLVTVSS VL: DIQMTQSPSSLSASVGDRVTITCRASQSISSYLNWYQQKPGKAPKLLIYAASSLQSGVPSRFSGSGSGTDFTLTISSLQPEDFATYYCQQGYIYPPTFGGGTKVEIK | – | – | 3.99 | – | – | – | – | –
SA-19-72 (antibody, V domains shown, IgG) VH: QVQLVESGGGVVQPGRSLGLSCAASGFTFSSYAMHWVRQAPGKGLEWVAGILYDGSNKYYADSVKGRFTISRDNSKNTLYLQMNSLRAEDTAVYYCARSNEKYTLGFAFDIWGQGTMVTVSS VL: not shown | – | – | 4.75 | – | – | – | 1.1 | –
SA-19-73 (antibody, V domains shown, IgG) VH: QVQLVESGGGLVQPGGSLRLSCAASGFTFSSYAMHWVRQAPGKGLEWVAGILYDGSNKYYADSVKGRFTISRDNSKNTLYLQMNSLRAEDTAVYYCANSDTKYTLGFAFDIWGQGTMVTVSS VL: not shown | – | – | 2.95 | – | – | – | 0.71 | –
SA-40 (antibody, V domains shown, IgG) VH: QVQLVQSGAEVKKPGASVKVSCKASGYTFTSYYMHWVRQAPGQGLEWMGIINPSGGSTTYAQKFQGRVTMTRDTSTSTVYMELSSLRSEDTAVYYCAREGLASTGVSDYYYMDVWGKGTTVTVSS VL: EIVLTQSPGTLSLSPGERATLSCRASQSVSSSYLAWYQQKPGQAPRLLIYGASSRATGIPDRFSGSGSGTDFTLTISRLEPEDFAVYYCQQLAHSPFTFGGGTKVEIK | no binding (tested: 100 nM) | – | – | 0.446 | no binding (tested: 1 ug/ml) | 0.542 | – | no binding (tested: 100 nM)
SA-41 (antibody, V domains shown, IgG) VH: QVQLQESGPGLVKPSETLSLTCTVSGGSISSYYWSWIRQPPGKGLEWIGSIYYSGSTNYNPSLKSRVTISVDTSKNQFSLKLSSVTAADTAVYYCAREGVAARGYYYGMDVWGQGTTVTVSS VL: EIVMTQSPATLSVSPGERATLSCRASQSVSSSLAWYQQKPGQAPRLLIYGASTRATGIPARFSGSGSGTEFTLTISSLQSEDFAVYYCQQYITYPITFGGGTKVEIK | no binding (tested: 100 nM) | – | – | 0.47 | no binding (tested: 1 ug/ml) | 0.989 | – | no binding (tested: 100 nM)
SA-42 (antibody, V domains shown, IgG) VH: QVQLQESGPGLVKPSETLSLTCTVSGGSISSYYWSWIRQPPGKGLEWIGSIYYSGSTNYNPSLKSRVTISVDTSKNQFSLKLSSVTAADTAVYYCAREGVAARGYYYGMDVWGQGTTVTVSS VL: EIVMTQSPATLSVSPGERATLSCRASQSVSSNLAWYQQKPGQAPRLLIFGASTRATGIPARFSGSGSGTEFTLTISSLQSEDFAVYYCQQYNAYPITFGGGTKVEIK | no binding (tested: 100 nM) | – | – | 0.443 | no binding (tested: 1 ug/ml) | 1.29 | – | no binding (tested: 100 nM)
SA-44 (antibody, V domains shown, IgG) VH: EVQLVESGGGLVQPGGSLRLSCAASGFTFSSYSMNWVRQAPGKGLEWVSYISSSSSTIYYADSVKGRFTISRDNAKNSLYLQMNSLRAEDTAVYYCAREPFYSADRFDYWGQGTLVTVSS VL: DIQMTQSPSSVSASVGDRVTITCRASQGIDSWLAWYQQKPGKAPKLLIYAASSLQSGVPSRFSGSGSGTDFTLTISSLQPEDFATYYCQQGVSLPYTFGGGTKVEIK | no binding (tested: 100 nM) | – | – | 0.56 | no binding (tested: 1 ug/ml) | 1.2 | – | no binding (tested: 100 nM)
SA-45 (antibody, V domains shown, IgG) VH: QVQLVQSGAEVKKPGASVKVSCKASGYTFTSYGISWVRQAPGQGLEWMGWISAYNGNTNYAQKLQGRVTMTTDTSTSTAYMELRSLRSDDTAVYYCARESGGTGAYGMDVWGQGTTVTVSS VL: DIQMTQSPSSLSASVGDRVTITCRASQSVSSSYLAWYQQKPGQAPRLLIYGASSRATGIPDRFSGSGSGTDFTLTISRLEPEDFAVYYCQQYYDSITFGGGTKVEIK | no binding (tested: 100 nM) | – | – | 0.512 | no binding (tested: 1 ug/ml) | 14.1 | – | no binding (tested: 100 nM)
SA-48 (antibody, V domains shown, IgG) VH: QVQLVESGGGVVQPGRSLRLSCAASGFTFSSYGMHWVRQAPGKGLEWVAVISYDGSNKYYADSVKGRFTISRDNSKNTLYLQMNSLRAEDTAVYYCARGAPIETLGVYYYGMDVWGQGTTVTVSS VL: not shown | no binding (tested: 100 nM) | – | – | 0.545 | no binding (tested: 1 ug/ml) | 3.27 | – | no binding (tested: 100 nM)
SA-50 (antibody, V domains shown, IgG) VH: EVQLVESGGGLVQPGGSLRLSCAASGFTFSSYSMNWVRQAPGKGLEWVSYISSSSSTIYYADSVKGRFTISRDNAKNSLYLQMNSLRAEDTAVYYCARGGGGYSYSPYIYGMDVWGQGTTVTVSS VL: not shown | no binding (tested: 100 nM) | – | – | 0.518 | no binding (tested: 1 ug/ml) | 5.56 | – | no binding (tested: 100 nM)
SA-52 (antibody, V domains shown, IgG) VH: QVQLVQSGAEVKKPGASVKVSCKASGYTFTNYGISWVRQAPGQGLEWMGWISAYNGNTNYAQKLQGRVTMTTDTSTSTAYMELRSLRSDDTAVYYCARGLWSEHIYWGQGTLVTVSS VL: EIVMTQSPGTLSLSPGERATLSCRASQSVSSSYLAWYQQKPGQAPRLLIYGASNRATGIPDRFSGSGSGTDFTLTISRLEPEDFAVYYCQQYVDLPLTFGGGTKVEIK | no binding (tested: 100 nM) | – | – | 0.557 | no binding (tested: 1 ug/ml) | 1.9 | – | no binding (tested: 100 nM)
SA-53 (antibody, V domains shown, IgG) VH: QVQLQESGPGLVKPSQTLSLTCTVSGGSISSGGYYWSWIRQHPGKGLEWIGYIYYSGSTYYNPSLKSRVTISVDTSKNQFSLKLSSVTAADTAVYYCARGPLGAAGFDYWGQGTLVTVSS VL: not shown | no binding (tested: 100 nM) | – | – | 0.726 | no binding (tested: 1 ug/ml) | 2.13 | – | no binding (tested: 100 nM)
SA-57 (antibody, V domains shown, IgG) VH: QLQLQESGPGLVKPSETLSLTCTVSGGSISSSSYAWGWIRQPPGKGLEWIGSIYYSGSTYYNPSLKSRVTISVDTSKNQFSLKLSSVTAADTAVYYCARKGMDDAGMDVWGQGTTVTVSS VL: EIVLTQSPATLSLSPGERATLSCRASQSVSSYLAWYQQKPGQAPRLLIYDASNRATGIPARFSGSGSGTDFTLTISSLEPEDFAVYYCQQDSAWPFTFGGGTKVEIK | no binding (tested: 100 nM) | – | – | 0.464 | no binding (tested: 1 ug/ml) | 1.89 | – | no binding (tested: 100 nM)
SA-6 (antibody, V domains shown, IgG) VH: EVQLVESGGGLVQPGRSLRLSCAASGFTFDDYAMHWVRQAPGKGLEWVSGITWNSGSIGYADSVKGRFTISRDNAKNSLYLQMNSLRAEDTALYYCAKEGRYGSGITTTWGQGTLVTVSS VL: EIVMTQSPATLSLSPGERATLSCRASQSVSSYLAWYQQKPGQAPRLLIYDSSNRATGIPARFSGSGSGTDFTLTISSLEPEDFAVYYCQQDANYPYTFGGGTKVEIK | no binding (tested: 100 nM) | – | – | 0.545 | no binding (tested: 1 ug/ml) | 3.13 | – | no binding (tested: 100 nM)
SA-7 (antibody, V domains shown, IgG) VH: QVQLVESGGGVVQPGRSLRLSCAASGFTFSSYGMHWVRQAPGKGLEWVALIWYDGSNKYYADSVKGRFTISRDNSKNTLYLQMNSLRAEDTAVYYCAKEGSSYADGWPYGMDVWGQGTTVTVSS VL: not shown | no binding (tested: 100 nM) | – | – | 0.515 | no binding (tested: 1 ug/ml) | 0.708 | – | no binding (tested: 100 nM)
